Measurements reported in article PMC6484134 (2019).

Assays:
[1] = target: Cul3NΔ22 (human Cul3 N-terminal domain, residues 23–388, I342R L346D) (human, UniProt Q13618 23-388, I342R | L346D); experiment: ITC
[2] = target: Cul3N (human Cul3 N-terminal domain, residues 1–388, I342R L346D) (human, UniProt Q13618 1-388, I342R | L346D); experiment: ITC
Cul3N (human Cul3 N-terminal domain, residues 1–388, I342R L346D), sequence (Q13618 1-388 I342R/L346D): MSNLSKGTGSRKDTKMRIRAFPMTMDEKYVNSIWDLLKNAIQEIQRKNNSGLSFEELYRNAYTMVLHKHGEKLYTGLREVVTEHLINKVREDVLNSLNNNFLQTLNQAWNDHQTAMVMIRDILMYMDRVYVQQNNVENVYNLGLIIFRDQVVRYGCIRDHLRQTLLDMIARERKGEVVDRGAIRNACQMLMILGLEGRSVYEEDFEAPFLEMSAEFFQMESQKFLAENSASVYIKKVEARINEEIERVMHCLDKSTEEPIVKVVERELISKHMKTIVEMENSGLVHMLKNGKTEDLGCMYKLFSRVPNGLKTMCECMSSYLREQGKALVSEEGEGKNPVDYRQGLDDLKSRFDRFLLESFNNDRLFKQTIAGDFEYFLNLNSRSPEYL

Cul3NΔ22 (human Cul3 N-terminal domain, residues 23–388, I342R L346D), sequence (Q13618 23-388 I342R/L346D): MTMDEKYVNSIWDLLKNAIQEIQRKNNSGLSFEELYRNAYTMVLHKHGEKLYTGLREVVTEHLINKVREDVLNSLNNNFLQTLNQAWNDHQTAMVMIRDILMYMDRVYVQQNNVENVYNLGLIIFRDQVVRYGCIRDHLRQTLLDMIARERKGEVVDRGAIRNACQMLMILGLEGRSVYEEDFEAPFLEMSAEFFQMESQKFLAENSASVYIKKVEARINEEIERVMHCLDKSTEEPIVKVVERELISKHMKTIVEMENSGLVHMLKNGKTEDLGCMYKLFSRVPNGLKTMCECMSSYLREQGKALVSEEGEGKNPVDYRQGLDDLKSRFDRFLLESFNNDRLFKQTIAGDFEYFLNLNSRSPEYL

B1: KLHL3-BB (human KLHL3 BTB-BACK domain, residues 24–276) (domain or fragment)
chain: RTITVNPAHMGKAFKVMNELRSKQLLCDVMIVAEDVEIEAHRVVLAACSPYFCAMFTGDMSESKAKKIEIKDVDGQTLSKLIDYIYTAEIEVTEENVQVLLPAASLLQLMDVRQNCCDFLQSQLHPTNCLGIRAFADVHTCTDLLQQANAYAEQHFPEVMLGEEFLSLSLDQVCSLISSDKLTVSSEEKVFEAVISWINYEKETRLEHMAKLMEHVRLPLLPRDYLVQTVEEEALIKNNNTCKDFLIEAMKYH
[1]
  Kd: 36.2 nM
[2]
  Kd: 22.9 nM
